In experiment [1] the target is T1, human CD47-ECD-Avi-His (human).
T1 construct: also called recombinant human CD47-avi-his protein; recombinant human CD47 protein
The experiment is described as follows: SPR, CD47 amine-coupled, Fab analyte, 1:1 fit. For orientation: Surface plasmon resonance follows binding to a sensor surface in real time, without labels.

In experiment [2] the target is T2, cynomolgus CD47-ECD-Avi-His (cynomolgus monkey).
T2 construct: also called recombinant cynomolgus monkey CD47-avi-his protein
T2 chain: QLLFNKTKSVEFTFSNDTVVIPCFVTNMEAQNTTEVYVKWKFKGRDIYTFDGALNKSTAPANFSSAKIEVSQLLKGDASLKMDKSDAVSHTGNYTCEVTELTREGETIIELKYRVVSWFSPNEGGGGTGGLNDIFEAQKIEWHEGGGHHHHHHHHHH
Description: SPR, CD47 amine-coupled, Fab analyte, 1:1 fit.

In experiment [3] the target is T1, human CD47-ECD-Avi-His. The experiment is described as follows: SPR; human CD47; value given in the text of paragraph 230.
Experiment [4] deals with T2, cynomolgus CD47-ECD-Avi-His. Description: SPR; cynomolgus monkey CD47; value given in the text of paragraph 230.
The target of experiment [5] is T3, Human FcyRI (human, UniProt P12314 16-288, limits assumed).
T3 construct: also called FcγRIa
The experiment is described as follows: SPR; reference trastuzumab.

Experiment [6] concerns the target T4, Human FcyRIIA (human, UniProt P12318 34-208, limits assumed).
T4 construct: also called FcγRIIa
T4 chain: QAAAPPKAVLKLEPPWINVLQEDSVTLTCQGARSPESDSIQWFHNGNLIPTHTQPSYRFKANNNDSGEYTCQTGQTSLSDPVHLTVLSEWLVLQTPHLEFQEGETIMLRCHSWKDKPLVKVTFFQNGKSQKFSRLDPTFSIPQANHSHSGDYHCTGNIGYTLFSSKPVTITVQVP
The experiment is described as follows: SPR; reference trastuzumab.

For experiment [7], the target named is T5, Human FcyRIIB (human, UniProt P31994 46-217, limits assumed).
T5 construct: also called FcγRIIb
T5 sequence (looked up): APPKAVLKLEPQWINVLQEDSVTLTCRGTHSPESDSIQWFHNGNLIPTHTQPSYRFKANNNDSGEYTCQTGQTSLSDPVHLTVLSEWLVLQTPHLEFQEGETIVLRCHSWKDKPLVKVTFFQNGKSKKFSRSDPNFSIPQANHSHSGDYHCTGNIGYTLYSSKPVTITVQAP
Description: SPR; reference trastuzumab.

The target in experiment [8] is T6, Human FcyRIIIA (human, UniProt P08637 17-193, limits assumed).
T6 construct: also called FcγRIIIa
The experiment is described as follows: SPR; reference trastuzumab.

Experiment [9] deals with T4, Human FcyRIIA. The experiment is described as follows: SPR, antibody on Protein G chip, steady state.
Experiment [10] addresses T5, Human FcyRIIB. The experiment is described as follows: SPR, antibody on Protein G chip, steady state.
Experiment [11] addresses T6, Human FcyRIIIA. Description: SPR, antibody on Protein G chip, steady state.
In experiment [12] the target is T3, Human FcyRI. Description: SPR, antibody on Protein G chip, 1:1 binding model.
Experiment [13] addresses T7, Human FcRn (human, UniProt P55899 24-297, limits assumed).
T7 construct: Measured at pH 6.0; also called human FcRn receptor
The experiment is described as follows: SPR, antibody on Protein L chip, steady state, pH 6.0.

For experiment [14], the target named is T8, human FcRn-ECD-Avi-His / B2M complex (human, UniProt P61769 21-119).
T8 construct: B2M was cloned full length with its native leader; The alternative SPR method for BEAT CD38/CD47-60 says only 'FcRn' as analyte; the tie to the in-house complex is inferred; also called human FcRn/B2M complex
Description: SPR steady state, antibody captured with Human Fab Capture kit, FcRn analyte; reference trastuzumab control IgG1.

The target of experiment [15] is T9, CD38 on cells (Daudi, Raji, KMS-12-PE, NCI-H929, KMS-12-BM) (human, UniProt P28907).
T9 construct: full-length, cell surface; These cells also carry CD47
The experiment is described as follows: flow cytometry on Raji cells (carry CD38 and CD47), anti-human IgG-Fc PE, GeoMFI; apparent whole-cell value, the anti-CD47 arm also binds. (A flow cytometer gives signals particle by particle.)

Experiment [16] addresses T9, CD38 on cells (Daudi, Raji, KMS-12-PE, …). The experiment is described as follows: flow cytometry on Daudi cells (carry CD38 and CD47), anti-human IgG-Fc PE, GeoMFI; apparent whole-cell value, the anti-CD47 arm also binds.
The target is the same in experiment [17]. Description: flow cytometry on NCI-H929 cells (carry CD38 and CD47), anti-human IgG-Fc PE, GeoMFI; apparent whole-cell value, the anti-CD47 arm also binds.
Experiment [18] shares this target. The experiment is described as follows: flow cytometry on KMS-12-PE cells (carry CD38 and CD47), anti-human IgG-Fc PE, GeoMFI; apparent whole-cell value, the anti-CD47 arm also binds.
The target is the same in experiment [19]. The experiment is described as follows: flow cytometry on KMS-12-BM cells (carry CD38 and CD47), anti-human IgG-Fc PE, GeoMFI; apparent whole-cell value, the anti-CD47 arm also binds.
Experiment [20] has as its target T10, CD47 on cells (Daudi cells; human red blood cells) (human, UniProt Q08722 19-323).
T10 construct: whole, on cells; These cells also carry CD38
The experiment is described as follows: blocking of SIRPα-mIgG1 Fc binding to CD47 on Daudi cells, image-based readout with anti-mouse IgG Fc Alexa Fluor 647, % inhibition; the sheet calls the half-maximal value EC50.

The target in experiment [21] is T11, recombinant biotinylated human CD38 Avitag, His Tag (Acrobiosystems, CD8-H82E7) (human, UniProt P28907 43-300, biotinylated (Avitag)).
T11 construct: Bought protein; also called biotinylated human CD38-avi-his protein; biotinylated recombinant human CD38 protein
Description: SPR, biotinylated CD38 captured, Fab analyte, 1:1 fit.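 Also: biacore T200 at 25 °C, single-cycle kinetics with Fab injected at 7.8–2000 nM for 3 min, dissociation followed 5 min, reference flow path subtracted.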

Experiment [22] deals with T12, recombinant cynomolgus monkey CD38-ECD-C-his (cynomolgus monkey, UniProt Q5VAN0 45-301).
T12 construct: Extracellular region fused to 6-His; also called cyno CD38-C-His; recombinant cynomolgus monkey CD38 protein
The experiment is described as follows: SPR, His-captured cyno CD38, Fab analyte; NB = no detectable binding.

By Kd is commonly meant the free concentration of one partner at which half of the binding sites on the other are occupied at equilibrium, for simple one-to-one binding. The EC50 (read off the curve) is the concentration giving half of the maximal effect.

B1: anti-CD47-UCP01-H2 FAB (Fab, V domains shown)
VH: EVQLVESGGGLIQPGGSLRLSCAASGFTLSRNTMHWVRQAPGKGLEWVSVIYQSGVTRYADSVKGRFTISRDNSKNTLYLQMNSLRAEDTAVYYCARGRYGVAGGPGYAFDVWGQGTLVTVSS
VL: not shown
notes: human IgG1 Fab; also called anti-CD47-H2; anti-CD47-H2 Fab
With B1, the Kd in experiment [1] was 878 nM; in experiment [2] it was 939 nM; in experiment [3] it was 104 nM; in experiment [4] it was 142 nM.

B2: BEAT CD38/CD47-60 (bispecific antibody, human IgG1, kappa)
heavy 1: EVQLVESGGGLIQPGGSLRLSCAASGFTLSRNTMHWVRQAPGKGLEWVSVIYQSGVTRYADSVKSRFTISRDNSKNTLYLQMNSLRAEDTAVYYCARGRYGVAGGPGYAFDVWGQGTLVTVSSASTKGPSVFPLAPSSKSTSGGTAALGCLVKDYFPEPVTVSWNSGALTSGVHTFPAVLQSSGLYSLSSVVTVPSSSLGTQTYICNVNHKPSNTKVDKKVEPKSCDKTHTCPPCPAPELLGGPDVFLFPPKPKDTLMISRTPEVTCVVVDVSHEDPEVKFNWYVDGVEVHNAKTKPREEQYNSTYRVVSVLTVLHQDWLNGKEYKCKVNNKALPAPEEKTISKAKGQPREPAVYTLPPSREEMTKNQVKLVCLVTGFYPSDIAVEWESSGQPENNYYTTPPMLDSDGSFSLVSWLNVDKSRWQQGNIFSCSVMHEALHNRFTQKSLSLSPG
heavy 2: not shown
light: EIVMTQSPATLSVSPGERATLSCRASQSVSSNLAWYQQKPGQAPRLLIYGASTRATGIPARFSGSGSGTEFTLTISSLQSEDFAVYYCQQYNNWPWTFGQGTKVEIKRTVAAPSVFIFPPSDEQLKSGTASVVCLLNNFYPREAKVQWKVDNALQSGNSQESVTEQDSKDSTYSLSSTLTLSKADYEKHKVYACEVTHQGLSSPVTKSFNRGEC
notes: 2+1 biparatopic format; BEAT (A): S239D + I332E + S324N, BEAT (B): S324N; also called BEAT CD38/47-60; BEAT 38/47-60
Turning to B2, the “fold enhancement BEAT CD38/47-60 over trastuzumab” value was 2.6 fold in experiment [5], 4.4 fold in experiment [6], 6.7 fold in [7] and 5.6 fold in experiment [8]. Moreover, the Kd turned out to be 110 nM in [9]; 306 nM in experiment [10]; 15.1 nM in experiment [11]; 0.07 nM in [12]; 418 nM in experiment [13]. Further, the “KD ratio [BEAT/Control IgG1]” value in [14] came out at 0.5 ratio. Also, the “EC50 (read off the curve)” value in experiment [15] was ~4 nM; in [16], ~4 nM; in experiment [17], ~8 nM; in [18], ~3 nM; in experiment [19], ~30 nM. Also, the “IC50 (read off the curve)” value in experiment [20] is ~0.03 nM.

B3: Anti-CD38-UCP01-D1 Fab (Fab, V domains shown)
VH: QVQLVQSGAEVKKPGSSVKVSCKASGGIFNGYLISWVRQAPGQGLEWMGGIIPVNGLADYAQKFQGRVTITADESTSTAYMELSSLRSEDTAVYYCARTIGRYIIAFDYWGQGTLVTVSS
VL: not shown
notes: human IgG1 Fab
In the case of B3, in experiment [21], the Kd worked out at 666 nM. The binding result in [22] is listed as “no binding (tested: 2000 nM)”.

The values are drawn from US20240150489A1 (ICHNOS SCIENCES, published 2024).
